From patent US20190153106A1 (TRUSTEES OF BOSTON UNIVERSITY, published 2019)
“And” between values parts separate entries of the source, which are not always exact repeats. Equal entries are not always repeated. Where two headings read alike, the source gives them in different places.

B1: 7C5B2 mouse anti-human DEspR monoclonal antibody (antibody, V domains shown)
VH: QVQLKESGPGLVAPSQSLSITCTVSGFSLKSYAVSWVRQPPGKGLEWLGVIWGDGSTDYHSALISRLSISKDNSKSQFFLRLNSLQTDDTATYYCARGTGTGFAYWGQGTLVTVSA
VL: DVVMTQTPLSLPVSLGDQASISCRSSQSLVHSNGNTYLHWYLQKPGQSPKLLIYKVSNRFSGVPDRFSGSGSGTDFTLKISRVEAEDLGIYFCSQCTHIPWTFGGGTNLEIK
notes: Mouse hybridoma antibody raised against the 9-aa N-terminal peptide of human DEspR; IgG2b was used as its isotype control; AF568-labelled in the FACS and internalization assays; also called 7C5-murine monoclonal antibody; HV2KV2
B2: 6g8^IgG4 humab1 (6g8g7-derived IgG4 humanized monoclonal antibody 1) (antibody)
heavy: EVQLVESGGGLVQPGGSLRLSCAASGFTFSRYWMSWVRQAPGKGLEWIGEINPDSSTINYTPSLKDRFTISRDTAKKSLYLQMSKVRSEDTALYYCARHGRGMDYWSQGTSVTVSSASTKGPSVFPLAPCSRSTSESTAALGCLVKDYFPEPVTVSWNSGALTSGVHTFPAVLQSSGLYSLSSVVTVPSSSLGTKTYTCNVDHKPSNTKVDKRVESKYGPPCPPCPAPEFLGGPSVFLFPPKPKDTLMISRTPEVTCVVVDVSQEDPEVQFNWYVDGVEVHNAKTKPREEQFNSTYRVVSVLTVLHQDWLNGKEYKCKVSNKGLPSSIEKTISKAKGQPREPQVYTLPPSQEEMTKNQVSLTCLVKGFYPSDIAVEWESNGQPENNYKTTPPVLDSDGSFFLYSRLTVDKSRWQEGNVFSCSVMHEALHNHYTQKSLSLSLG
light: DIVLTQSPDILSVSLGERATVNCKASQNVDSNVAWYQQKPGHPPKLLIYSASYRYSRVPDRISGSGSGTDFTLTISNLQAEDVAVYYCQQYHSYPLLAFGAGTKLELKRTVAAPSVFIFPPSDEQLKSGTASVVCLLNNFYPREAKVQWKVDNALQSGNSQESVTEQDSKDSTYSLSSTLTLSKADYEKHKVYACEVTHQGLSSPVTKSFNRGEC
notes: Hinge-stabilized (S228P) human IgG4 / human kappa, transiently expressed in HEK293; AF568-labelled in the FACS assays; also called 6G8IgG4 humanized monoclonal antibody 1 (mAb 1); lead candidate humab
B3: 6g8^IgG1 humab1 (IgG1 6G8G7 humanized monoclonal antibody) (antibody)
heavy: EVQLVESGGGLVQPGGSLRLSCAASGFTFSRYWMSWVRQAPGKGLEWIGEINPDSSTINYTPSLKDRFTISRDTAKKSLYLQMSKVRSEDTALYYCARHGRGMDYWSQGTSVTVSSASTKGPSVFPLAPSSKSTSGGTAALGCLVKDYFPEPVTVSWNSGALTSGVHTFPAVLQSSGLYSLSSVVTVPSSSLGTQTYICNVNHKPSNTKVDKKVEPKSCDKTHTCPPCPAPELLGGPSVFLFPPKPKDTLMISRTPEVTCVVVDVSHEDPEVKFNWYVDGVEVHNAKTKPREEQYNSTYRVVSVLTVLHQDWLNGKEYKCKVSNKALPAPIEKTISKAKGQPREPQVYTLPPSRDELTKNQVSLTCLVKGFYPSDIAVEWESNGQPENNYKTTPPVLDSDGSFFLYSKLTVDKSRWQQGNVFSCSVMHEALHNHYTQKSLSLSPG
light: B2 light
notes: Human IgG1 / human kappa
B4: 6G8G7 murine anti-DEspR monoclonal antibody (antibody, V domains shown)
VH: EVQLQESGGGLVQPGGSLKLSCAASGFDFSRYWMSWVRQAPGKGLEWIGEINPDSSTINYTPSLKDKFIISRDTAKKTLYLQMSKVRSEDTALYYCARHGRGMDYWSQGTSVTVSS
VL: DIVLTQTNQIMSASVGDRVSVTCKASQNVDSNVAWYQQKPGHSPKALIYSASYRYSRVPDRITGSGSGTDFTLTITNVQSKDLADYFCQQYHSYPLLAFGAGTKLELKR
notes: Mouse hybridoma antibody, detected with anti-mouse IgG2b; also called 6g8 mumab; 6g8-mumab
B5: human DEspR (dual endothelin-1/VEGF signal peptide receptor) (receptor)
chain: MTMFKGSNEMKSRWNWGSITCIICFTCVGSQLSMSSSKASNFSGPLQLYQRELEIFIVLTDVPNYRLIKENSHLHTTIVDQGRTV
modifications: glycosylated (~17 kDa band, PNGase-sensitive)
notes: On intact Panc1 cells / Panc1 CSCs in the FACS assays and on HUVECs in the angiogenesis assays; In pulldowns and Western blots it came from membrane proteins of U87 CSCs and hDEspR-Cos1 permanent transfectants; also called hDEspR; DEAR

How the values were obtained:
[1] = target: B5; test: saturation binding by FACS, AF568-labelled mAb on DEspR+ Panc1 cells
Description: (§1) Saturation binding curves of monoclonal antibody (mAb) binding to DEspR on Panc1 CSCs. […] Specific binding was determined by FACS analysis using 100,000 cells in 0.25 ml containing increasing concentrations of mAbs. Incubations were done at 4° C. for 20 min and immediately subjected to FACS analysis on a BDTM LSRII Flow cytometer. Each data point was performed in duplicate.
Fully human VH5/VK1 has a slightly better Kd than VH3/VK2 fully human composite antibodies. […] (FIG. 16).

[2] = target: B5; test: FACS saturation binding of AF568-labelled mAb to Panc1 CSCs, 4 °C, 20 min
Description: as §1

[3] = target: B5; test: FACS displacement of AF568-7C5B2 (10 µg/ml) from Panc1 CSCs; peptide at 100x molar excess
Description: 50,000 cells were reacted with 10 µg/ml AF568-labelled 7C5B2 monoclonal antibody (mAb) at 4° C. for 20 min in the absence or presence of the different peptides at 100× molar excess. Samples were immediately subjected to FACS analysis for quantification of DEspR+ cells. Samples were run in duplicates. AngII, angiotensinII; ET1, endothelin-1 (DEspR ligand); sp17, VEGFsp17 (DEspR ligand); sp26, VEGFsp26 (DEspR ligand). Data presented as Mean±SD.

rat DEspR = target: T1, rat DEspR (rat); test: cell-based or functional assay
T1 chain: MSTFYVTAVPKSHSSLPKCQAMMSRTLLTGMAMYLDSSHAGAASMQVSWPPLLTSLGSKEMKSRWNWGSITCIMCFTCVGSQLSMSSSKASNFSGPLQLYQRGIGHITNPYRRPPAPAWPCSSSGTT

[4] = target: B5; test: cell-based or functional assay
[5] = target: T2, antigenic peptide (AP) EMKSRWNWGS (human/monkey/rat DEspR epitope); test: ELISA on antigenic peptide EMKSRWNWGS
T2 construct: also called 6G8G7 antigenic peptide; partial peptide
T2 peptide: EMKSRWNWGS
Description: Next, the EC50 of binding to the antigenic peptide was determined by ELISA, as shown in FIGS. 35A-35B, comparing two IgG4 6g8g7 humanized antibody candidates (including humab1 comprising SEQ ID NOs: 63 and 65 and humab2 comprising SEQ ID NO: 65 with substitutions in SEQ ID NO: 26 at Kabat residues 83V and 85Y to give 83D and 85Y), and the IgG1 6G8G7humanized monoclonal antibody (comprising SEQ ID NOs: 61 and 65), and 6G8G7 murine monoclonal antibody (“6g8 mumab”).
(§2) Neutrophils (50000/well) were incubated in the absence or presence of mAbs at 37° C. × 4 hrs and live cells counted by using Trypan blue. HUVEC-dependent angiogenesis (20,000 cells/well) was performed as described in the presence or absence of mAbs. Number of polygons and number of branch points were determined after 14 hrs of incubation at 37° C. ND, not done, indeterminate, value greater than upper limit of max dose used in these experiments.

[6] = target: B5; test: FACS, AF568-labelled mAb on intact DEspR+ human cells (Panc1), 4°C
Description: Binding was determined by FACS analysis.
as §2

[7] = target: T2, antigenic peptide (AP) EMKSRWNWGS; test: ELISA on antigenic peptide EMKSRWNWGS
[8] = target: B5; test: cell-based or functional assay; remark: listed apart in the source
galectin-1 = target: T3, galectin-1 (human, UniProt P09382 2-135); test: Western blot of the DEspR complex
T3 construct: also called gal1; recombinant galectin-1 protein
T3 sequence (P09382 2-135 limits assumed): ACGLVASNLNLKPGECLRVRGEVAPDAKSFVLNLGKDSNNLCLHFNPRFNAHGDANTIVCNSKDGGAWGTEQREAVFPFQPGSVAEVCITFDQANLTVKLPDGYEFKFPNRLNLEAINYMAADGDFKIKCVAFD

Question: Which Kd [1] does the source give for B1 here?
Answer: ~5.2 µg/mL

Question: What about the Kd [2] of the same binder?
Answer: 5.2 µg/mL

Question: Does CSCSSLMDKECVYFCHLDIIW (ligand, UniProt P05305 53-73, looked up, also called ET1; ET-1) [endothelin-1] bind [3]?
Answer: binds

Question: For B2, which “Rat Neutrophil survival, IC50” value (rat DEspR) is on record?
Answer: 1.16 µg/mL

Question: And the “Human Angiogenesis assay (HUVECs): branch points, IC50” value [4]?
Answer: 4.3 µg/mL

Question: And the “Human Angiogenesis assay (HUVECs): polygons, IC50” value [4]?
Answer: 2.6 µg/mL

Question: What about the “Bmax (A450)” value [5] of the same binder?
Answer: 2.62 A450

Question: What about the EC50 [5] of the same binder?
Answer: 11.7 µg/mL

Question: And the “Bmax (% + cells)” value [6]?
Answer: 31.5 % + cells

Question: What about the EC50 [6] of the same binder?
Answer: ~4.3 nM and 0.64 µg/mL

Question: With B3 as the binder, how does the “Rat Neutrophil survival, IC50” value (rat DEspR) read?
Answer: 6.98 µg/mL

Question: And the “Human Angiogenesis assay (HUVECs): branch points, IC50” value [4]?
Answer: 10.4 µg/mL

Question: And the “Human Angiogenesis assay (HUVECs): polygons, IC50” value [4]?
Answer: 9.1 µg/mL

Question: And the “Bmax (A450)” value [5]?
Answer: 3.09 A450

Question: And the EC50 [5]?
Answer: 13.4 µg/mL

Question: What about the “Bmax (% + cells)” value [6] of the same binder?
Answer: 21.6 % + cells

Question: What about the EC50 [6] of the same binder?
Answer: 1.3 µg/mL and 42.9 nM

Question: What does the source list for B4?
Answer: Rat Neutrophil survival, IC50 (rat DEspR): > 30 µg/mL; Human Angiogenesis assay (HUVECs): branch points, IC50 [4]: > 30 µg/mL; Human Angiogenesis assay (HUVECs): polygons, IC50 [4]: > 30 µg/mL; EC50 [7]: 4.96 µg/mL; Bmax (A450) [5]: 6.36 A450; EC50 [5]: 2.96 µg/mL; Kd [1]: ~5.2 µg/mL; Bmax (% + cells) [6]: 35.6 % + cells; EC50 [6]: 5.39 µg/mL and 178 nM; Kd [2]: 5.2 µg/mL

Question: How did the “stimulation of HUVEC angiogenesis, EC50 based on total tube length” value [8] turn out when MNFLLSWVHWSLALLLY (ligand) [VEGFsp17 (VEGF signal peptide 17)] was run?
Answer: 1.98 nM

Question: Does B5 bind (galectin-1)?
Answer: binds

Question: MNFLLSWVHWSLALLLYLHHAKWSQA (ligand) [VEGFsp26 (VEGF signal peptide 26)] was tested. Which “inhibition of HUVEC angiogenesis, IC50 based on total tube length” value [8] did it give?
Answer: 1.9 nM
